Values joined by “and” are separate entries in the source; they are usually repeats but may differ in a detail not shown here. Equal entries are not always repeated. Where two headings read alike, the source gives them in different places.
Experiments:
[1] = target: L266D mutant yeast actin (S. cerevisiae) (UniProt P60010); experiment: light scattering
[2] = target: L266D mutant yeast actin (S. cerevisiae) (UniProt P60010); experiment: sedimentation of F-actin
[3] = target: L266D mutant yeast actin (S. cerevisiae) (UniProt P60010); experiment: light scattering; remark: listed apart in the source
[4] = target: L266D mutant yeast actin (S. cerevisiae) (UniProt P60010); experiment: sedimentation of F-actin; remark: listed apart in the source
[5] = target: L266D mutant yeast actin (S. cerevisiae) (UniProt P60010); experiment: light scattering; remark: listed apart in the source
[6] = target: L266D mutant yeast actin (S. cerevisiae) (UniProt P60010); experiment: light scattering; remark: listed apart in the source
[7] = target: L266D mutant yeast actin (S. cerevisiae) (UniProt P60010); experiment: sedimentation of F-actin; remark: listed apart in the source

“L266D mutant yeast actin (from UniProt P60010 1-375) (natural protein)” showed a critical concentration (Cc) for polymerization [1] of 11 µM, an actin remaining in the supernate (starting concentration 70 µM) [2] of 46.5 µM and a critical concentration (Cc) for polymerization [3] of 1.2 µM. For the same substance, the elongation rate, times slower than wild-type actin [3] was 2 times and 3 times, the actin remaining in the supernate (starting concentration 70 µM) [4] was 4.6 µM and the elongation rate, times slower than wild-type actin [5] was 2 times and 3 times. It also gave a critical concentration (Cc) for polymerization [6] of 6.5 µM and an actin remaining in the supernate (starting concentration 70 µM) [7] of 11.6 µM.

Source: PMC2119884
